Results taken from paper PMC5360445, “SMOC can act as both an antagonist and an expander of BMP signaling” (eLife, 2017).
Blank lines part the entries; values can stand above or below the molecule they belong to.

Columns and labels:
[1] = biological target: XSMOC-1∆EC (XSMOC-1 lacking the EC domain) (Xenopus); test: SEC; HiLoad Superdex-200 PG, 20 mM Tris/HCl pH 7.5, 300 mM NaCl, 2 mM CaCl2, 10% glycerol; proteins refolded in the presence of 2 mM CaCl2; molecular weights calculated from elution
[2] = biological target: recombinant mature XSMOC-1 (Xenopus SMOC-1) (Xenopus); test: SEC; XSMOC-1 refolded in the presence of 2 mM CaCl2, then dialysed in the presence of 10.5 mM EDTA
[3] = biological target: recombinant mature XSMOC-1 (Xenopus SMOC-1) (Xenopus); test: SEC; HiLoad Superdex-200 PG, 20 mM Tris/HCl pH 7.5, 300 mM NaCl, 2 mM CaCl2, 10% glycerol; proteins refolded in the presence of 2 mM CaCl2; molecular weights calculated from elution
[4] = biological target: recombinant mature XSMOC-1 (Xenopus SMOC-1) (Xenopus); test: not stated; data not shown; in the presence of 50 mM EDTA and 1 mM nitriloacetic acid
[5] = biological target: the molecule itself; test: SEC; HiLoad Superdex-200 PG, 20 mM Tris/HCl pH 7.5, 300 mM NaCl, 2 mM CaCl2, 10% glycerol; proteins refolded in the presence of 2 mM CaCl2; molecular weights calculated from elution

- stoichiometry N [1]: 2
Molecule: XSMOC-1∆EC (XSMOC-1 lacking the EC domain) (domain or fragment)

- stoichiometry N [2]: 2
- stoichiometry N [3]: 2
- stoichiometry N [4]: 2
Molecule: recombinant mature XSMOC-1 (Xenopus SMOC-1) (natural protein)

B1: human SMOC-1 (natural protein, UniProt Q9H4F8 27-434, looked up)
chain: HRTTGPRFLISDRDPQCNLHCSRTQPKPICASDGRSYESMCEYQRAKCRDPTLGVVHRGRCKDAGQSKCRLERAQALEQAKKPQEAVFVPECGEDGSFTQVQCHTYTGYCWCVTPDGKPISGSSVQNKTPVCSGSVTDKPLSQGNSGRKDDGSKPTPTMETQPVFDGDEITAPTLWIKHLVIKDSKLNNTNIRNSEKVYSCDQERQSALEEAQQNPREGIVIPECAPGGLYKPVQCHQSTGYCWCVLVDTGRPLPGTSTRYVMPSCESDARAKTTEADDPFKDRELPGCPEGKKMEFITSLLDALTTDMVQAINSAAPTGGGRFSEPDPSHTLEERVVHWYFSQLDSNSSNDINKREMKPFKRYVKKKAKPKKCARRFTDYCDLNKDKVISLPELKGCLGVSKEGRLV
notes: human SMOC-1, construct pET28-SMOC-1-HT of Novinec et al., 2008; expected monomeric size 46.6 kDa; probably the protein without its signal peptide; also called hSMOC-1; pET28-SMOC-1-HT
- stoichiometry N [5]: 2
